1 molecule from patent US20230355708A1 (DREXEL UNIVERSITY, published 2023) can be followed below.

The target of this test is SARS-CoV-2 spike S2 subunit (SARS-CoV-2, UniProt P0DTC2 686-1213). The test can be described thus: SPR, S2 anchored on low dextran chip, CVN injected at increasing concentrations. On the technique in general: SPR reads the build-up and loss of mass on a sensor chip optically.

B1: Cyanovirin-N (CV-N) (other)
chain: LGKFSQTCYNSAIQGSVLTSTCERTNGGYNTSSIDLNSVIENVDGSLKWQPSNFIETCRNTQLAGSSELAAECKTRAQQFVSTKINLDDHIANIDGTLKYE
As for B1, the binding result was “binds”.
